The results in this text go back to FireProtDB (doi:10.1016/0022-2836(91)90725-l).

For the data set the following is noted: Bacillus amyloliquefaciens; pH 6.3; 25 °C; Urea; Fluorescence; MES 1.00 M; NaCl 613 mM; reversible: yes; whole UniProt chain shown.

B1: Ribonuclease wild type, P00648 (protein)
chain: MMKMEGIALKKRLSWISVCLLVLVSAAGMLFSTAAKTETSSHKAHTEAQVINTFDGVADYLQTYHKLPDNYITKSEAQALGWVASKGNLADVAPGKSIGGDIFSNREGKLPGKSGRTWREADINYTSGFRNSDRILYSSDWLIYKTTDHYQTFTKIR
Regarding B1, the denaturant m value stood at 2.22 kcal/mol/M, the “denaturant midpoint (higher = more stable)” value worked out at 4.57 M and the unfolding free energy stood at 10.2 kcal/mol.
